We go through one substance from publication PMC3545708.

The Kd is the constant that tells how readily two partners part at equilibrium. High values mean lower affinity, low ones higher affinity.

This test concerns the target isolated HC fragment of BoNT/A (receptor-binding domain), wild type (Clostridium botulinum). In words: ITC.

The substance “full-length NTNHA-A1 (non-toxic non-hemagglutinin protein) (from UniProt Q45914 1-1193) (natural protein)” returned a Kd of 48.3 nM.
